Reference: patent US20040018529A1, “Functional cloning of genes encoding proteins/enzymes involved in proteolytic cleavage” (priority 1999, published 2004)
Peptide text beside a SMILES is read from it. * marks the point of attachment. Cbz = O=C(OCc1ccccc1)*; CH2F = FC*

Key:
293T cells = experiment: Apoptosis assay by visual inspection of transfected cells; assay type: cell-based, Human
Description: Apoptosis assays 293T cells were seeded onto 60 mm dishes at a density of 1.5×10^6 cells and, the next day, were transiently transfected with 2.5 μg plasmid DNA mixed with 15 μl lipofectamin reagent (Life Technologies, Grand Island, N.Y.). Twenty-four or 48 h after transfection, cell death was analyzed by one of the following methods. For the first assay, apoptosis was quantitated by visual inspection of cells. Cells with a shrunken, rounded, detached or blebbed appearance were scored as apoptotic. Usually 3 or more random fields were photographed and counted, and each field contained at least several hundred cells. In the case of co-transfection with green fluorescent protein (GFP)-expressing plasmid, cells were examined with an inverted fluorescent microscope, and only green cells with apoptotic features were counted. The second apoptotic assay used was the detection of nucleosomal ladder in apoptotic cells using ApoAlert LM-PCR ladder assay kit from Clontech. The procedure recommended by Clontech was followed.

[1] = biological target: modified caspase-3 containing the β-secretase cleavage site of APP of the Swedish version (expressed from plasmid pCBC1) (human); experiment: cell-based or functional assay
modified caspase-3 = experiment: Western blot analysis of processing of the modified caspase-3; assay type: cell-based, Human; details: 293T cells, co-transfection with pCBC1, compared with the control
Source text: Western blot analysis Cells were collected in PBS and immediately lysed by the addition of an equal volume of 2×SDS loading buffer. After boiling and centrifugation, supernatants containing equal amount of proteins were loaded onto 14% SDS-PAGE gels. The proteins were resolved and transferred to a nylon membrane, and probed with antibodies against human caspase-3 (Santa Cruz Biotech, Santa Cruz, Calif.).

caspase-3 = experiment: Caspase-3 activity assay (ApoAlert CPP32/Caspase-3 Fluorescent Assay kit); assay type: cell-based, Human; details: 293T cells, co-transfection with pCBC1, compared with controls
Source text: The protease activity of the caspase is also directly monitored in the cell extracts prepared as above. The ApoAlert® Caspase-3 assay kit, available commercially from Clontech, allows convenient fluorometric or colorimetric detection and assay of caspase-3. For example, the fluorescent kit detects the emission shift of 7-amino-4-trifluoromethyl coumarin (AFC). The AFC-substrate conjugate, DEVD-AFC, usually emits blue light (λmax=400 nm). However, upon proteolytic cleavage of the substrate by Caspase-3, free AFC fluoresces yellow-green (λmax=505 nm). Thus monitoring of emission at 505 nm in the cell extract, in relation to the uninduced control extract, allows determination of caspase activity. The activity can also be quantitated accurately and reproducibly using a standard curve established with free AFC. As described above, if there is endogenous expression of enzyme X in these cells, the caspase activity is generated in cells transfected only with pCTC1 (+) but not with pCTC1 (−).
Caspase-3 activity assay Caspase-3 activity was determined following the instructions of ApoAlert CPP32/Caspase-3 Fluorescent Assay kit (Clontech).

β-secretase = experiment: β-NTF assay (ELISA of medium of transfected 293T cells); assay type: cell-based, Human; details: co-transfection with the APP expression plasmid, 48 h
Description: β-NTF assay 293T cells were seeded onto 60 mm dishes at a density of 1.5×10^6 cells and, the next day, were transiently transfected with 2.5 μg plasmid DNA mixed with 15 μl lipofectamin reagent (Life Technologies, Grand Island, N.Y.). In the case of transfection with pAPPsw plasmid, 0.5 μg pAPPsw was mixed with 2.0 μg carrier plasmid (unrelated plasmid). Twenty-four or 48 h after transfection, medium was collected and determined for […] by ELISA method as described [Liu, 2000]

| Molecule | cell death caused by transfection of pCBC1 plasmids (293T cells; 10 μM inhibitor added immediately after DNA transfection) | caspase-3 activity in transfected 293T cells (caspase-3 fluorescent assay), over mock-transfected cells, 24 and 48 h [1] | processed caspase-3 fragment (12 kDa) (modified caspase-3) | caspase-3 activity (caspase-3) | number of apoptotic cells / cell death caused by the modified caspase-3 (293T cells; co-transfection with pCBC1, compared with controls) | generation of β-NTF (β-secretase) |
| --- | --- | --- | --- | --- | --- | --- |
| COC(=O)C[C@H](NC(=O)[C@H](C)NC(=O)[C@@H](NC(=O)OCc1ccccc1)C(C)C)C(=O)CF [Z-VAD.fmk, reference compound] (Cbz-Val-Ala-Asp(OMe)-CH2F) | significantly prevented cell death |  |  |  |  |  |
| endogenous β-secretase activity of human embryonic kidney 293T cells (enzyme) |  | 10 fold |  |  |  |  |
| BACE2: BACE2 expression plasmid; BACE2 competes in vivo with β-secretase for β-site APP cleavage (protein, UniProt Q9Y5Z0 63-518, looked up) Beta-secretase 2: ALEPALASPAGAANFLAMVDNLQGDSGRGYYLEMLIGTPPQKLQILVDTGSSNFAVAGTPHSYIDTYFDTERSSTYRSKGFDVTVKYTQGSWTGFVGEDLVTIPKGFNTSFLVNIATIFESENFFLPGIKWNGILGLAYATLAKPSSSLETFFDSLVTQANIPNVFSMQMCGAGLPVAGSGTNGGSLVLGGIEPSLYKGDIWYTPIKEEWYYQIEILKLEIGGQSLNLDCREYNADKAIVDSGTTLLRLPQKVFDAVVEAVARASLIPEFSDGFWTGSQLACWTNSETPWSYFPKISIYLRDENSSRSFRITILPQLYIQPMMGAGLNYECYRFGISPSTNALVIGATVMEGFYVIFDRAQKRVGFAASPCAEIAGAAVSEISGPFSTEDVASNCVPAQSLSEPILWIVSYALMSVCGAILLVLIVLLLLPFRCQRRPRDPEVVNDESSLVRHRWK |  |  | significantly reduced | lower caspase-3 activity than the controls | significantly reduced the number of apoptotic cells | significantly inhibited the generation of β-NTF |
| BACE2(D110A): catalytically inactive mutant of BACE2, expressed from plasmid (protein) APELAPAPFTLPLRVAAATNRVVAPTPGPGTPAERHADGLALALEPALASPAGAANFLAMVDNLQGDSGRGYYLEMLIGTPPQKLQILVATGSSNFAVAGTPHSYIDTYFDTERSSTYRSKGFDVTVKYTQGSWTGFVGEDLVTIPKGFNTSFLVNIATIFESENFFLPGIKWNGILGLAYATLAKPSSSLETFFDSLVTQANIPNVFSMQMCGAGLPVAGSGTNGGSLVLGGIEPSLYKGDIWYTPIKEEWYYQIEILKLEIGGQSLNLDCREYNADKAIVDSGTTLLRLPQKVFDAVVEAVARASLIPEFSDGFWTGSQLACWTNSETPWSYFPKISIYLRDENSSRSFRITILPQLYIQPMMGAGLNYECYRFGISPSTNALVIGATVMEGFYVIFDRAQKRVGFAASPCAEIAGAAVSEISGPFSTEDVASNCVPAQSLSEPILWIVSYALMSVCGAILLVLIVLLLLPFRCQRRPRDPEVVNDESSLVRHRWK |  |  | significantly reduced | lower caspase-3 activity than the controls |  | significantly inhibited the generation of β-NTF |
